Measured values as given in the supplement of paper PMC10724198.
± gives the standard deviation of the averaged measurements.

Columns and labels:
[1] = tested on: Saccharomyces cerevisiae; assay: protein stability index of tFT-peptide fusion (C-terminal peptide) (PSI (0-1 scale)); higher = more stable (slower turnover)
Description: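 MPS profiling in S. cerevisiae of the tFT-X12 degron library: putative degron peptides plus stable controls, 12 aa, fused to the C-terminus of a sfGFP-mCherry timer. Cells are FACS-sorted into 8 mCherry/sfGFP bins and deep-sequenced. PSI runs from 0 (unstable) to 1 (stable). Backgrounds are wild type, das1Δ and doa10Δ at 30 °C, and wild type, das1Δ, cdc34-1 and cdc53-1 at 37 °C; 2-3 technical replicates each.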

[2] = tested on: Saccharomyces cerevisiae; assay: as above; conditions: genetic background: wild type; temperature: 30 C
[3] = genetic background: cdc34-1, temperature: 37 C
[4] = genetic background: cdc53-1, temperature: 37 C
[5] = genetic background: das1 deletion, temperature: 30 C
[6] = genetic background: das1 deletion, temperature: 37 C
[7] = genetic background: doa10 deletion, temperature: 30 C
[8] = genetic background: wild type, temperature: 30 C
[9] = genetic background: wild type, temperature: 37 C
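Note: PSI is a weighted mean of sequencing reads over stability bins, variants kept only with over 10 reads, mCherry proximal and sfGFP distal, peptide attached via GGGS linker.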

Sequence	protein stability index [1, 3]	protein stability index [1, 4]	protein stability index [1, 5]	protein stability index [1, 6]	protein stability index [1, 7]	protein stability index [1, 8]	protein stability index [1, 9]	protein stability index [2]
STLPACNCLKLL	0.663 ± 0.015	0.7607 ± 0.0055	0.622 ± 0.011	0.741 ± 0.013	0.332 ± 0.015	0.371 ± 0.03	0.565 ± 0.015	0.426 ± 0.069
STNMDNRIRTLA	0.659 ± 0.011	0.714 ± 0.012	0.638 ± 0.031	0.72 ± 0.013	0.311 ± 0.0059	0.356 ± 0.023	0.556 ± 0.017	0.431 ± 0.0013
SVIVSSFFLWVF	0.381 ± 0.051	0.454 ± 0.035	0.298 ± 0.03	0.482 ± 0.0072	0.2026 ± 0.00069	0.223 ± 0.029	0.426 ± 0.016	0.288 ± 0.019
SVLVWFLVFLVW	0.209 ± 0.0046	0.235 ± 0.02	0.223 ± 0.028	0.3733 ± 0.0037	0.218 ± 0.019	0.211 ± 0.026	0.321 ± 0.042	0.315 ± 0.012
SVVYCRMRVHFV	0.403 ± 0.024	0.487 ± 0.046	0.373 ± 0.015	0.432 ± 0.014	0.263 ± 0.01	0.285 ± 0.02	0.3786 ± 0.0025	0.285 ± 0.0052
SWGEQDRLTGYI	0.715 ± 0.029	0.77 ± 0.02	0.689 ± 0.024	0.787 ± 0.0083	0.669 ± 0.018	0.674 ± 0.026	0.712 ± 0.023	0.7195 ± 0.0031
SWMFKLCIQWNV	0.5147 ± 0.0019	0.567 ± 0.023	0.502 ± 0.011	0.5321 ± 0.00098	0.467 ± 0.029	0.456 ± 0.013	0.49 ± 0.019	0.467 ± 0.012
SWSLRLSTIFSV	0.609 ± 0.11	0.664 ± 0.016	0.612 ± 0.025	0.667 ± 0.0072	0.189 ± 0.0053	0.219 ± 0.018	0.352 ± 0.022	0.367 ± 0.0041
SYFASLLDLFTA	0.727 ± 0.062	0.77 ± 0.0079	0.66 ± 0.011	0.766 ± 0.018	0.669 ± 0.018	0.674 ± 0.012	0.759 ± 0.021	0.598 ± 0.16
TDSSWEVSLMVG	0.679 ± 0.051	0.747 ± 0.036	0.612 ± 0.012	0.733 ± 0.016	0.605 ± 0.023	0.6186 ± 0.0039	0.741 ± 0.026	0.374 ± 0.053
TDVLLLQLLISV	0.202 ± 0.021	0.228 ± 0.059	0.225 ± 0.028	0.338 ± 0.018	0.184 ± 0.007	0.219 ± 0.032	0.316 ± 0.0075	0.311 ± 0.012
TGPLVHLLCCCV	0.354 ± 0.011	0.417 ± 0.011	0.313 ± 0.028	0.3955 ± 0.0013	0.284 ± 0.0075	0.315 ± 0.019	0.386 ± 0.0074	0.421 ± 0.011
TKKGQTRPSRTD	0.634 ± 0.0078	0.6989 ± 0.0024	0.642 ± 0.034	0.705 ± 0.017	0.6444 ± 0.0049	0.687 ± 0.029	0.696 ± 0.017	0.575 ± 0.21
TLKRCFRWCRTT	0.492 ± 0.095	0.71 ± 0.05	0.672 ± 0.018	0.699 ± 0.0095	0.105 ± 0.0068	0.11 ± 0.011	0.157 ± 0.031	0.176 ± 0.0047
TLSRTPVSPSAP	0.686 ± 0.051	0.738 ± 0.017	0.637 ± 0.018	0.706 ± 0.021	0.674 ± 0.032	0.6492 ± 0.0015	0.696 ± 0.022	0.7094 ± 0.0059
TMSGVTRCVLVL	0.521 ± 0.048	0.526 ± 0.04	0.385 ± 0.026	0.5463 ± 0.0053	0.339 ± 0.015	0.395 ± 0.02	0.5379 ± 0.0049	0.423 ± 0.015
TNEWMDVKVFCY	0.668 ± 0.0073	0.701 ± 0.052	0.499 ± 0.049	0.676 ± 0.0097	0.449 ± 0.028	0.486 ± 0.04	0.6398 ± 0.0051	0.491 ± 0.088
TSFSSGEALGVG	0.437 ± 0.0066	0.503 ± 0.021	0.442 ± 0.0075	0.5 ± 0.0091	0.4553 ± 0.0011	0.445 ± 0.013	0.48763 ± 3.8e-05	0.483 ± 0.01
TVHVIVVCRELA	0.4698 ± 0.0034	0.518 ± 0.015	0.39 ± 0.03	0.52 ± 0.017	0.201 ± 0.014	0.244 ± 0.025	0.381 ± 0.007	0.3271 ± 0.0022
TVRLPLILPCVL	0.5752 ± 0.0049	0.573 ± 0.031	0.421 ± 0.028	0.5669 ± 0.0053	0.414 ± 0.0034	0.42 ± 0.025	0.55 ± 0.013	0.4884 ± 0.0042
TVRVWPRNLWFS	0.519 ± 0.048	0.677 ± 0.017	0.639 ± 0.021	0.7273 ± 0.0018	0.111 ± 0.0029	0.111 ± 0.021	0.235 ± 0.031	0.176 ± 0.021
TWGGGRVSLGVG	0.313 ± 0.029	0.3966 ± 0.0028	0.326 ± 0.011	0.405 ± 0.018	0.3442 ± 0.0015	0.359 ± 0.044	0.401 ± 0.022	0.328 ± 0.016
TYHRSYLLATVV	0.49857 ± 0.00019	0.55 ± 0.08	0.378 ± 0.028	0.543 ± 0.016	0.181 ± 0.0023	0.224 ± 0.024	0.331 ± 0.00026	0.314 ± 0.025
VACTCILVALVV	0.059 ± 0.0069	0.164 ± 0.02	0.0772 ± 0.027	0.198 ± 0.0045	0.0424 ± 0.0038	0.0686 ± 0.035	0.165 ± 0.005	0.142 ± 0.035
VAFLYCHFFYCI	0.502 ± 0.063	0.531 ± 0.013	0.391 ± 0.029	0.53095 ± 0.00027	0.342 ± 0.0038	0.37 ± 0.014	0.47 ± 0.009	0.415 ± 0.013
VAVFFFCRVFFL	0.248 ± 0.062	0.339 ± 0.005	0.221 ± 0.037	0.412 ± 0.0042	0.186 ± 0.02	0.211 ± 0.024	0.318 ± 0.04	0.289 ± 0.026
VCCYILFFLFPV	0.401 ± 0.0048	0.522 ± 0.008	0.349 ± 0.025	0.568 ± 0.024	0.322 ± 0.0058	0.337 ± 0.026	0.506 ± 0.018	0.418 ± 0.011
VCLRICLVTLMM	0.3 ± 0.019	0.444 ± 0.011	0.284 ± 0.032	0.4615 ± 0.0026	0.2405 ± 0.0017	0.261 ± 0.033	0.4126 ± 0.0014	0.428 ± 0.03
VCPCCPYVMIAG	0.598 ± 0.061	0.641 ± 0.04	0.498 ± 0.027	0.647 ± 0.0012	0.318 ± 0.0013	0.336 ± 0.043	0.494 ± 0.0062	0.489 ± 0.018
VCSCLVLVFCCC	0.232 ± 0.018	0.222 ± 0.018	0.232 ± 0.036	0.318 ± 0.0068	0.207 ± 0.025	0.237 ± 0.015	0.285 ± 0.024	0.298 ± 0.037
